# From paper PMC4139611, “Differential expression of Homeobox C11 protein in water buffalo Bubalus bubalis and its putative 3D structure”
# Target: HOXC11 (His-HOXC11) (Bubalus bubalis (water buffalo), UniProt W5XU26 1-304)
# Test: EMSA; supershift with anti-HOXC11 antibody; 10 mM Tris pH 7.9, 1 mM DTT, 0.1 mM EDTA, 50 mM KCl, 5% glycerol, 30 min at 4 °C; 5% native PAGE in 1x TBE at room temperature
# Conditions: protein: recombinant; tags: N-terminal His6 with thrombin site; label: 32P (alpha-32P-dCTP); 5' overhang 4 nt (GATC) at both ends
# Sequence of HOXC11 (His-HOXC11) (W5XU26 entry or part of it): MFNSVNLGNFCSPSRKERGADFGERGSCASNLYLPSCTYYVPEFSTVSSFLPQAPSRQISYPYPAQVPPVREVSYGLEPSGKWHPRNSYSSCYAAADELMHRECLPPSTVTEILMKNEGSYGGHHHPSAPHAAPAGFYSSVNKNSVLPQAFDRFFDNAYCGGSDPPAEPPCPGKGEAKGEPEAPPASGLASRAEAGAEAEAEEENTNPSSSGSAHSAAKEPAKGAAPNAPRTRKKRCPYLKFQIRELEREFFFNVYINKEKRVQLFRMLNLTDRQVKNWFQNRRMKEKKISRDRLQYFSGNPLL
binder,measurement,value
CE-LPH1 probe (LPH promoter) (dsDNA) DNA 1: GATCTTTTACAACCTCAGTTG DNA 2: GATCCAACTGAGGTTGTAAAA,binding result,binds
